Here are results for two molecules from patent US20130260458A1, “METHOD OF INDUCING DIFFERENTIATION OF HUMAN PLURIPOTENT STEM CELL INTO HEPATIC PROGENITOR CELL” (NATIONAL UNIVERSITY CORPORATION CHIBA UNIVERSITY, priority 2012, published 2013).

Experiment [1] has as its system Human iPS cells (201B7). The experiment can be described thus: Expression of transcription factors in iPS cells cultured with single growth-promoting agents (RT-PCR, electrophoresis). Particulars: iPS cells in iPSm(−) medium with the growth-promoting agent added; PCR and electrophoresis, FIG. 2. In kind it is cell-based. The method, then:
Reverse transcriptase (Life Technologies Japan Ltd.) was used to synthesize cDNAs of iPS cells, fetal hepatic cells and adult hepatic cells from 3 μg of RNA. The cDNAs were subjected to polymerase chain reaction (PCR) using the following primers to GATA4, FOXA2, HEX, C/EBPα and C/EBPβ, respectively, and to electrophoresis using 2% low-melting agarose (Lonza) and 1×TAE, for investigations on the expression of GATA4, FOXA2, HEX, C/EBPα and C/EBNβ in the iPS cells, fetal hepatic cells and adult hepatic cells.
After electrophoresis, the 2% low-melting agarose was irradiated with ultraviolet rays at 254 nm from a UV transilluminator (UVP LLC, NLMS-20E), and a Polaroid photograph (FUJIFILM Corporation, FP-3000B) thereof was taken with a gel camera (Funakoshi DS-300) to analyze an electrophoretic pattern.
PCR cycles performed included 30 cycles of thermal denaturation: 1 minute at 94° C.; annealing: 1 minute and elongation reaction: 1 minute at 72° C.
Human iPS cells (201B7, RIKEN cell bank) were seeded onto a matrigel-coated 6-well plate, and cultured in a feeder-less medium, ReproFF (trade name, Reprocell Inc.) for culture of stem cells maintained in an undifferentiated state, without using a feeder cell, under conventional conditions: 37° C. and 5% carbon dioxide.
A medium obtained by adding a 20% knock-out serum replacement (Life Technologies Japan Ltd.), 10% Minimum Essential Amino Acids (Life Technologies Japan Ltd.), 2 mM of L-glutamine (Life Technologies Japan Ltd.) and 1 mM of 2-mercaptoethanol to a D-MEM/F12 medium (Dulbecco's Modified Eagle Medium-F12 medium, Sigma-Aldrich Japan) was used as an iPSm(−) medium.
The following growth-promoting agents were added to the iPSm(−) medium, and SOX-17, GATA6, FOXA2, GATA4, HEX, TTR and C/EBPα were expressed in a manner similar to that in Experiment 1.
As the growth-promoting agents, added were bFGF (basic fibroblast growth factor, Wako Pure Chemical Industries, Ltd.), BMP (bone morphogenetic protein)-4 (Wako Pure Chemical Industries, Ltd.), oncostatinM (Wako Pure Chemical Industries, Ltd.), an epidermal growth factor (EGF, Wako Pure Chemical Industries, Ltd.), a nerve growth factor (NGF, R & D Systems, Inc.), TGF-β, (transform growth factor-β, R& D Systems, Inc.), retinoic acid (Sigma-Aldrich Japan) and a hepatic cell growth factor (HGF, Sigma-Aldrich Japan).
RT-PCR to SOX-17, GATA6 and TTR was performed under the following conditions.

For experiment [2], the system named is Human iPS cells (201B7). The experiment can be described thus: Induction of differentiation into hepatic progenitor cells by growth-promoting agents (real-time quantitative PCR of AFP and DLK-1). The class given is cell-based. Conditions: iPS cells transfected with FOXA2, GATA4, HEX, C/EBPα three times every three days, 8th day, n=3, ± standard error, ReproFF lane = 100. The method, then: Human iPS cells (201B7, RIKEN cell bank) were seeded onto a matrigel-coated 6-well plate, and cultured in a medium, ReproFF in accordance with a conventional method under the following conditions: 37° C. and 5% carbon dioxide. A lipofection reagent, Lipofectamine LTX (registered trade mark, Life Technologies Japan Ltd.) was used to transfect 0.5 μg of expression plasmids of FOXA2, GATA4, HEX and C/EBPα, respectively. […]
The transfection of the transcription factors was repeated three times every three days, and, on the 8th day, RNA was extracted using Isogen (NIPPON GENE CO., LTD.). […] Then, the amount of expressed α-fetoprotein (AFP), which was an indicator of hepatic progenitor cells, was analyzed by the real-time quantitative PCR method using a real-time PCR analysis reagent, Fast SYBR Green Master Mix (trade name, Life Technologies Japan Ltd.). […] The amounts of α-fetoprotein (AFP) and Delta-like (DLK)-1 expressed were quantitatively determined as an indicator of hepatic progenitor cells by employing ribosome-related protein (RLP19) as internal standard (each group, n=3).
The real-time quantitative PCR was performed by using the following primers through a PCR cycle including 30 cycles of 5 seconds at 95° C. and 20 seconds at 60° C.

“Also recorded” adds a separate entry of the source.

B1: epidermal growth factor (protein, UniProt P01133 23-1207, looked up)
Pro-epidermal growth factor: PQHWSCPEGTLAGNGNSTCVGPAPFLIFSHGNSIFRIDTEGTNYEQLVVDAGVSVIMDFHYNEKRIYWVDLERQLLQRVFLNGSRQERVCNIEKNVSGMAINWINEEVIWSNQQEGIITVTDMKGNNSHILLSALKYPANVAVDPVERFIFWSSEVAGSLYRADLDGVGVKALLETSEKITAVSLDVLDKRLFWIQYNREGSNSLICSCDYDGGSVHISKHPTQHNLFAMSLFGDRIFYSTWKMKTIWIANKHTGKDMVRINLHSSFVPLGELKVVHPLAQPKAEDDTWEPEQKLCKLRKGNCSSTVCGQDLQSHLCMCAEGYALSRDRKYCEDVNECAFWNHGCTLGCKNTPGSYYCTCPVGFVLLPDGKRCHQLVSCPRNVSECSHDCVLTSEGPLCFCPEGSVLERDGKTCSGCSSPDNGGCSQLCVPLSPVSWECDCFPGYDLQLDEKSCAASGPQPFLLFANSQDIRHMHFDGTDYGTLLSQQMGMVYALDHDPVENKIYFAHTALKWIERANMDGSQRERLIEEGVDVPEGLAVDWIGRRFYWTDRGKSLIGRSDLNGKRSKIITKENISQPRGIAVHPMAKRLFWTDTGINPRIESSSLQGLGRLVIASSDLIWPSGITIDFLTDKLYWCDAKQSVIEMANLDGSKRRRLTQNDVGHPFAVAVFEDYVWFSDWAMPSVMRVNKRTGKDRVRLQGSMLKPSSLVVVHPLAKPGADPCLYQNGGCEHICKKRLGTAWCSCREGFMKASDGKTCLALDGHQLLAGGEVDLKNQVTPLDILSKTRVSEDNITESQHMLVAEIMVSDQDDCAPVGCSMYARCISEGEDATCQCLKGFAGDGKLCSDIDECEMGVPVCPPASSKCINTEGGYVCRCSEGYQGDGIHCLDIDECQLGEHSCGENASCTNTEGGYTCMCAGRLSEPGLICPDSTPPPHLREDDHHYSVRNSDSECPLSHDGYCLHDGVCMYIEALDKYACNCVVGYIGERCQYRDLKWWELRHAGHGQQQKVIVVAVCVVVLVMLLLLSLWGAHYYRTQKLLSKNPKNPYEESSRDVRSRRPADTEDGMSSCPQPWFVVIKEHQDLKNGGQPVAGEDGQAADGSMQPTSWRQEPQLCGMGTEQGCWIPVSSDKGSCPQVMERSFHMPSYGTQTLEGGVEKPHSLLSANPLWQQRALDPPHQMELTQ
modifications: Pro-epidermal growth factor
notes: growth factor used as growth-promoting agent (Wako Pure Chemical Industries)
On to B1, for which, in the experiment on Human iPS cells (201B7) [1], the “expression of C/EBPα” value is “not observed to be expressed”, the “expression of FOXA2” value is recorded as “not observed to be expressed”, the “expression of GATA4” value is “not observed to be expressed” and the “expression of GATA6” value is “observed to be expressed”. Further, the “expression of HEX” value in the experiment with Human iPS cells (201B7) [1] is “not observed to be expressed”. Besides, the “α-fetoprotein/RPL19 ratio (mRNA expression)” value in the experiment with Human iPS cells (201B7) [2] (FIG. 3-1) was 139±13. Besides, in the experiment on Human iPS cells (201B7) [2] (FIG. 3-2), the “DLK-1/RPL19 ratio (mRNA expression)” value stood at 59±7.

B2: oncostatin M (protein, UniProt P13725 26-221, looked up)
Oncostatin-M: AAIGSCSKEYRVLLGQLQKQTDLMQDTSRLLDPYIRIQGLDVPKLREHCRERPGAFPSEETLRGLGRRGFLQTLNATLGCVLHRLADLEQRLPKAQDLERSGLNIEDLEKLQMARPNILGLRNNIYCMAQLLDNSDTAEPTKAGRGASQPPTPTPASDAFQRKLEGCRFLHGYHRFMHSVGRVFSKWGESPNRSRR
notes: as for B1
For the molecule B2, in the experiment with Human iPS cells (201B7) [1], the “expression of C/EBPα” value is reported as “slightly expressed; also recorded: not observed to be expressed”, the “expression of FOXA2” value was “not observed to be expressed”, the “expression of GATA4” value was “not observed to be expressed” and the “expression of HEX” value is listed as “not observed to be expressed”. The “expression of SOX-17” value in the experiment on Human iPS cells (201B7) [1] is “observed to be expressed”.
